# Test results taken from US20090280138A1.
# Columns and labels:
# Details in all cases: remark: other sources report otherwise
# [1] = molecular target: MHC class I allele A*0201 monomer (human); assay: iTopia, multiparametric iScore
# [2] = molecular target: MHC class I allele B*0702 monomer (human); assay: iTopia, multiparametric iScore
# [3] = molecular target: MHC class I molecule A*0101; assay: iTopia iScore
# [4] = molecular target: MHC class I molecule A*0201; assay: iTopia iScore
# [5] = molecular target: MHC class I molecule A*0301; assay: iTopia iScore
# [6] = molecular target: MHC class I molecule B*0702; assay: iTopia iScore
# [7] = molecular target: MHC class I molecule HLA-B*0702 (iTopia plate-bound monomer); assay: iTopia off-rate assay, 37 C; fit R^2 0.09
# [8] = molecular target: MHC class I molecule HLA-A*0201 (iTopia plate-bound monomer); assay: iTopia off-rate assay, 37 C; fit R^2 0.35
# [9] = molecular target: MHC class I molecule HLA-A*0301 (iTopia plate-bound monomer); assay: iTopia off-rate assay, 37 C; fit R^2 0.99
# [10] = molecular target: MHC class I molecule A*0301; assay: iTopia affinity assay (ED50), peptide titration on plate-bound MHC
# [11] = molecular target: MHC class I molecule B*0702; assay: as above
# [12] = molecular target: MHC class I allele A*0101; assay: iTopia peptide binding assay
# [13] = molecular target: MHC class I allele A*0201; assay: iTopia peptide binding assay
# [14] = molecular target: MHC class I allele A*0301; assay: iTopia peptide binding assay
# [15] = molecular target: MHC class I allele B*0702; assay: iTopia peptide binding assay
binder,measurement,setting,value
"RLARLALVL (here or on the partner: biotinylated, bound to streptavidin-coated plate) [5T4 9-mer peptide 9]",iScore,[1],1.21
same,iScore,[2],0.515
RLARLALVL (here or on the partner: biotin (bound to streptavidin-coated plate)) [5T4 9-mer peptide 9 …],iScore,[3],0
same,iScore,[4],1.21
same,iScore,[5],0.052
same,iScore,[6],0.515
same,t½ half life,[7],2 h
same,t½ half life,[8],15.9 h
same,t½ half life,[9],0.3 h
RLARLALVL (here or on the partner: biotin (bound via biotin to streptavidin-coated plates)) [5T4 9 mer peptide 9 (…)],EC50,[10],3000 nM
same,EC50,[11],700 nM
RLARLALVL (here or on the partner: bound via biotin to streptavidin-coated plate) [5T4 9 mer peptide 9 …],% of positive control peptide binding,[12],2%
same,% of positive control peptide binding,[13],65%
same,% of positive control peptide binding,[14],48%
same,% of positive control peptide binding,[15],84%
